Paper doi:10.1101/529222 (bioRxiv, 2019)

Target: GST-EVH1 domain of VASP (UniProt P70460 1-113)
Assay: pull-down

Sequence of GST-EVH1 domain of VASP (P70460 1-113): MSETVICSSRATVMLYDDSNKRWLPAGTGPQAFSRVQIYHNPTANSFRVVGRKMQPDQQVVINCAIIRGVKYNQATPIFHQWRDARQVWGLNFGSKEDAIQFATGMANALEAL

B1: endogenous TRIM9 (natural protein, mouse (endogenous in E15.5 cortex), UniProt Q8C7M3 1-817, looked up)
chain: MEEMEEELKCPVCGSFYREPIILPCSHNLCQACARNILVQTPESESPQSRRASGSGVSDYDYLDLDKMSLYSEADSGYGSYGGFASAPTTPCQKSPNGVRVFPPAMPPPPTHLSPALAPVPRNSCITCPQCHRSLILDDRGLRGFPKNRVLEGVIDRYQQSKAAALKCQLCEKAPKEATVMCEQCDVFYCDPCRLRCHPPRGPLAKHRLVPPAQGRVSRRLSPRKVSTCTDHELENHSMYCVQCKMPVCYQCLEEGKHSSHEVKALGAMWKLHKSQLSQALNGLSDRAKEAKEFLVQLRTMVQQIQENSVEFEACLVAQCDALIDALNRRKAQLLARVNKEHEHKLKVVRDQISHCTVKLRQTTGLMEYCLEVIKENDPSGFLQISDALIRRVHLTEDQWGKGTLTPRMTTDFDLSLDNSPLLQSIHQLDFVQVKASSPVPATPILQLEECCTHNNSATLSWKQPPLSTVAADGYILELDDGSGGQFREVYVGKETMCTVDGLHFNSTYNARVKAFNKTGVSPYSKTLVLQTSEAAGAHETKPMKDTDSEEQTLPFPVPSERLPLRRMSPFSSTLNLQPSFPGRSYFDFRSSPHQLSLHSSLQSLNAPGCNFETQSASYSQLVDIKKLLAVAWFAFDPGSAHSDIIFSNDNLTVTCSSYDDRVVLGKTGFSKGVHYWELTIDRYDNHPDPAFGVARIDVMKDMMLGKDDKAWAMYVDNNRSWFMHNNSHTNRTEGGITKGATIGVLLDLNRKTLTFFVNNEQQGPIAFENVEGLFFPAVSLNRNVQVSLWAPGLRACSGCYFKVCPGAVKSPQAPAP
fold change of TRIM9 precipitated, Trim67-/- lysate against wild-type lysate: ~2 fold
